Source: the supplement of paper PMC10724198
± gives the standard deviation of the averaged measurements.

tested on: Saccharomyces cerevisiae; assay: protein stability index of tFT-peptide fusion (C-terminal peptide) (PSI (0-1 scale)); higher = more stable (slower turnover); conditions: genetic background: wild type; temperature: 30 C
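Note: PSI is a weighted mean of sequencing reads over stability bins, variants kept only with over 10 reads, mCherry proximal and sfGFP distal, peptide attached via GGGS linker.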

| Sequence | protein stability index |
| --- | --- |
| NKKTYHRPTKNY | 0.693 ± 0.015 |
| NKRKDEIKPRNV | 0.581 ± 0.049 |
| NKRKTKNKERRA | 0.65 ± 0.012 |
| NKSPWYYILQPM | 0.738 ± 0.082 |
| NKSTAEVKMEIR | 0.686 ± 0.064 |
| NKVLHPGGKPLT | 0.6637 ± 0.0062 |
| NKWKASRKYRKR | 0.723 ± 0.025 |
| NLARPTRTFAGV | 0.684 ± 0.013 |
| NLCTPRFATDFG | 0.629 ± 0.028 |
| NLFDHIHRSTPS | 0.761 ± 0.0078 |
| NLIGVVKSEYHR | 0.574 ± 0.01 |
| NMLWSLGRGGSC | 0.6648 ± 0.0029 |
| NMRQGPLAGLAG | 0.748 ± 0.072 |
| NNKSNKKKERKE | 0.698 ± 0.053 |
| NNMFFTREYEKL | 0.674 ± 0.013 |
| NNMSFLPMLDYT | 0.65 ± 0.042 |
| NNQKTKLNEKNC | 0.647 ± 0.048 |
| NNVCGIIFRQHH | 0.632 ± 0.048 |
| NPARPRPPPRER | 0.595 ± 0.057 |
| NPDVYKRNYQHK | 0.605 ± 0.035 |
| NPLHGNIRLSPL | 0.685 ± 0.046 |
| NPPELPVTENNP | 0.821 ± 0.17 |
| NPPSRLPRLPLH | 0.728 ± 0.043 |
| NPWYCVWYGAIT | 0.626 ± 0.068 |
| NQEIGLRNQGRV | 0.69 ± 0.033 |
| NQPSHPRPHAER | 0.666 ± 0.045 |

| Sequence | protein stability index |
| --- | --- |
| NRELTAVTFQRY | 0.709 ± 0.05 |
| NRKGNKGEKNTK | 0.676 ± 0.048 |
| NRPKVNSQERGY | 0.666 ± 0.02 |
| NRQNYAEDLKSC | 0.683 ± 0.02 |
| NRSIFITMDSSL | 0.676 ± 0.011 |
| NRSMFSSQNDNA | 0.671 ± 0.066 |
| NRYKIKKKIERR | 0.6 ± 0.039 |
| NSGSNKSNNRKC | 0.726 ± 0.032 |
| NSPRKKPHKSIT | 0.711 ± 0.014 |
| NSSPCPLPLLPP | 0.662 ± 0.036 |
| NSVHVRGRFITK | 0.678 ± 0.023 |
| NSVPSPSRSLPP | 0.666 ± 0.081 |
| NTCKMRTRNIKA | 0.635 ± 0.0068 |
| NTEKNKRDRYQK | 0.722 ± 0.019 |
| NTNPVHLKTHQT | 0.713 ± 0.011 |
| NTQLPASPVSQG | 0.628 ± 0.027 |
| NTSRSKKKVNSK | 0.704 ± 0.035 |
| NTSVSGTGVSSK | 0.762 ± 0.12 |
| NTTIQLWVERRQ | 0.679 ± 0.063 |
| NTVLPTPTMSPP | 0.702 ± 0.04 |
| NVIVRVPFVLEE | 0.692 ± 0.059 |
| NVMVRIGKGGVD | 0.6664 ± 0.0041 |
| NVSFHRSHLLYF | 0.654 ± 0.0067 |
| NYCKGFLLRANI | 0.645 ± 0.071 |
| NYKFENQIAKPP | 0.655 ± 0.077 |
| PAACLSLPPPPS | 0.706 ± 0.031 |

| Sequence | protein stability index |
| --- | --- |
| PAFGLSPPSFST | 0.728 ± 0.089 |
| PAFPSPFPTSSL | 0.647 ± 0.099 |
| PAISPPSPPPLP | 0.685 ± 0.047 |
| PALPPAPPPPPP | 0.693 ± 0.044 |
| PANASAEGDTSP | 0.682 ± 0.0082 |
| PANLLHPSDPPP | 0.612 ± 0.0064 |
| PAPLLPPSWRHP | 0.716 ± 0.015 |
| PAPPAPPPPPYL | 0.735 ± 0.087 |
| PAPPHPRHPPPP | 0.649 ± 0.018 |
| PAPPHTLPVWAD | 0.728 ± 0.029 |
| PAPPLPPLPLLP | 0.684 ± 0.013 |
| PAPPPHIPPSPS | 0.651 ± 0.023 |
| PAPRARTPLDRI | 0.683 ± 0.039 |
| PAPRFPFLFHPL | 0.776 ± 0.035 |
| PAQDCAATGVRR | 0.672 ± 0.037 |
| PARASLRCLCRN | 0.662 ± 0.055 |
| PARLQSTLHPRF | 0.634 ± 0.012 |
| PARPNMHTTPAD | 0.646 ± 0.02 |
| PARPQSFPPPNV | 0.669 ± 0.035 |
| PARPSPRPHLPD | 0.692 ± 0.04 |
| PARPSSLQLFPY | 0.747 ± 0.0078 |
| PARQDRPPDHAS | 0.729 ± 0.031 |
| PARRPPLPRLFL | 0.665 ± 0.032 |
| PASLPTPLPLPP | 0.618 ± 0.016 |
| PATPSPLSSSAP | 0.711 ± 0.039 |
| PAVAPRSTYAWH | 0.69619 ± 0.00054 |

| Sequence | protein stability index |
| --- | --- |
| PCGGVGRECVRG | 0.762 ± 0.032 |
| PCPGSPPCHFYF | 0.691 ± 0.018 |
| PCPRPTPLPPFP | 0.701 ± 0.055 |
| PCPVLPLPPFYL | 0.728 ± 0.0074 |
| PCRRPSSAPFPV | 0.696 ± 0.027 |
| PCSGSFFLEFRV | 0.707 ± 0.021 |
| PCSVDKAGSTKK | 0.606 ± 0.014 |
| PDCSFLNSTFTS | 0.739 ± 0.088 |
| PDGREQLVNGVT | 0.6359 ± 0.0019 |
| PDGTGPLCAPEP | 0.646 ± 0.059 |
| PDPPPRCRFLPL | 0.698 ± 0.044 |
| PDQPQPRPATNQ | 0.681 ± 0.022 |
| PDRIQPRSVLLP | 0.7293 ± 0.0047 |
| PDVPLASPSPFR | 0.625 ± 0.023 |
| PEFNKLNRFVSQ | 0.74 ± 0.11 |
| PEGPHTRTVVPA | 0.66 ± 0.0088 |
| PEITWFVIGVIE | 0.541 ± 0.043 |
| PEPSRRASAVSN | 0.648 ± 0.059 |
| PERFHLVCWVGR | 0.712 ± 0.083 |
| PFALPPPSPFPP | 0.7116 ± 0.0063 |
| PFAVKYIFEVWK | 0.591 ± 0.028 |
| PFCVPPPRPFSL | 0.743 ± 0.036 |
| PFESSRRLAPSP | 0.722 ± 0.035 |
